Assays:
Test in all cases: fluorescence polarisation; two-dimensional fluorescence anisotropy; 14-3-3β titrated to FITC-labeled F1, F2, F3, F4 or pepD (10 nM) with varying concentrations of ChREBP peptide; fitted to a thermodynamic cooperativity model with KD II fixed at 1.5 µM; n = 2
Details in all cases: both partners purified
macrocycle F3 = molecular target: T1, macrocycle F3 (not fully specified; fluorescein isothiocyanate (FITC) on the side chain of the first lysine; β-alanine after it; phosphoserine; triazole from azido phenylalanine (replacing Nph(+1)) cyclised to the …)
T1 chain: SFSXFKXK

macrocycle F4 = molecular target: T2, macrocycle F4 (not fully specified; fluorescein isothiocyanate (FITC) on the side chain of the first lysine; β-alanine after it; phosphoserine; triazole from azido phenylalanine (replacing Nph(+1)) cyclised to the …)
T2 chain: SFSXFKXK

macrocycle F1 = molecular target: T3, macrocycle F1 (not fully specified; fluorescein isothiocyanate (FITC) on the side chain of the first lysine; β-alanine after it; phosphoserine; triazole from azido phenylalanine (replacing Nph(+1)) cyclised to the …)
T3 chain: SFSXFKXK

FITC-labeled pepD = FITC-labeled pepD (FITC label (position not given); phosphoserine (pSer); 4-nitrophenylalanine Nph(+1) and Nph(+4), counting from pSer)

B1: 14-3-3β (natural protein, UniProt P31946 1-246, looked up)
chain: MTMDKSELVQKAKLAEQAERYDDMAAAMKAVTEQGHELSNEERNLLSVAYKNVVGARRSSWRVISSIEQKTERNEKKQQMGKEYREKIEAELQDICNDVLELLDKYLIPNATQPESKVFYLKMKGDYFRYLSEVASGDNKQTTVSNSQQAYQEAFEISKKEMQPTHPIRLGLALNFSVFYYEILNSPEKACSLAKTAFDEAIAELDTLNEESYKDSTLIMQLLRDNLTLWTSENQGDEGDAGEGEN
notes: 14-3-3 protein, beta isoform; also called 14-3-3 protein
- cooperativity factor α with ChREBP peptide (macrocycle F3): 12 ± 1
- cooperativity factor α with ChREBP peptide (macrocycle F4): 42 ± 1
- cooperativity factor α with ChREBP peptide (macrocycle F1): 339 ± 35
- cooperativity factor α with ChREBP peptide (FITC-labeled pepD): 38 ± 2

Reference: publication PMC12865133, “Macrocyclic Molecular Glues for the 14‐3‐3/ChREBP Interaction: Affinity and Cooperativity in an Inverse Relationship” (Angewandte Chemie (International Ed. in English), 2025)
